Data from patent US20240287172A1 (SCIRHOM, published 2024).
Positions count from the first letter of the chain named.

T1: hiR2-FL-A560S-T7 (human, UniProt Q6PJF5 1-856)
T1 sequence: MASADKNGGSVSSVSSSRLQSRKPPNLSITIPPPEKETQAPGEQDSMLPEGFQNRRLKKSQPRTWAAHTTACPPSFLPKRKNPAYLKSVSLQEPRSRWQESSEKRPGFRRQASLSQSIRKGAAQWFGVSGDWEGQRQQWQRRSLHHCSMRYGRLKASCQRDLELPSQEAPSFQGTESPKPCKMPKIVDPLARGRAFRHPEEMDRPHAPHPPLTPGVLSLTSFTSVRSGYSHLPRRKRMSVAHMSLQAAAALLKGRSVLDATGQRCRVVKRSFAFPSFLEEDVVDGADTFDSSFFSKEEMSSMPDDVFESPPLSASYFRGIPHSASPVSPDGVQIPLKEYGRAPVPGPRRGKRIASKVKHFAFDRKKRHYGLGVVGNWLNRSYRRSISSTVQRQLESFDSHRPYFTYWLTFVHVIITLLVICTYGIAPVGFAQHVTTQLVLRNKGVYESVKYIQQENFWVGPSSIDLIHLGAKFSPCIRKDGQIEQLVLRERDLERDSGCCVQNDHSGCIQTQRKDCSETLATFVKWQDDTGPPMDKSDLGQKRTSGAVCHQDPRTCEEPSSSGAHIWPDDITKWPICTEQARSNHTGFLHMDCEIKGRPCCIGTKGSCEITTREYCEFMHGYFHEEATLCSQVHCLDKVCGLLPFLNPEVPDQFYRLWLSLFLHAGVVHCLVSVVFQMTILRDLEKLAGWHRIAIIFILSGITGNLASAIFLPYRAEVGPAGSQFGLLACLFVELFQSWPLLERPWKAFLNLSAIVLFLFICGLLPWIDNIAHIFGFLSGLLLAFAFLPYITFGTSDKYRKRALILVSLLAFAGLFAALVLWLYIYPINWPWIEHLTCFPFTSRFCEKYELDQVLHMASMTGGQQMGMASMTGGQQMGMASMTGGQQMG

T2: hiR2-FL-T530P-T7 (human, UniProt Q6PJF5 1-856)
T2 sequence: T1 sequence with T530P, S560A

T3: hiR2-FL-P532A-T7 (human, UniProt Q6PJF5 1-856)
T3 sequence: T1 sequence with P532A, S560A

B1: antibody 48 (antibody, V domains shown)
VH: QVQLQQSGTELVRPGTSVKVSCKASGYAFTNYLIEWVKQRPGQGLEWIGVINPGSGFTKYNEKFKGKATLTADKSSSTVYMHLSSLTSEDSAVYFCARGLYRAMDYWGQGTSVTVSS
VL: DIQMTQSPASQSASLGESVTITCLASQTIATWLAWYQQKPGKSPQLLIYGATTLADGVPSRFSGGGSGTKFSFKISSLQAEDFVSYYCQQLYSTPYTFGGGTKLEIK
notes: mouse IgG, kappa light chain; also called clone #48; purified antibody 48
B2: antibody 50 (antibody, V domains shown)
VH: B1 VH with T9A, T16A, T30S, V79A, H82Q
VL: B1 VL with A30G, G50A, T52A, T53S, S85N, L91I
notes: mouse IgG, kappa light chain; also called clone #50; purified antibody 50
B3: antibody 5 (antibody, V domains shown)
VH: QVTLKESGPGILQPSQTLSLTCSFSGFSLSTFGMGVGWIRQPSGKGLEWLAHIWWDDEKYYNSALKSRLTISKATSKNQAFLKIANVDTADTATYYCARISNYGSNYWYFNVWGTGTTVTVSS
VL: QVVLTQSPALMSASPGEKVTMTCSAGSSVSCMYWYQQKPGSSPRVLIYDTSNLASGVPARFTGSGSGTSYSLTISRMEAEDAASYYCQQWNSYPLTFGAGTKLELK
notes: mouse IgG, kappa light chain; also called clone #5; purified antibody 5
B4: antibody 44 (antibody, V domains shown)
VH: B3 VH with G44E, E58D, S63P, A74D, A80I, A85T, D91E, A98S, S101G, N111D
VL: QIVLTQSPAVMSASPGEKVTMTCTASSSVYYMYWYQQTPGSSPRLLIYDTSNLASGVPVRFSGSGSGTSYSLTISRMEAEDAATYYCQQWNTYPLTFGAGTKLELK
notes: mouse IgG, kappa light chain; also called clone #44; purified antibody 44
B5: antibody 42 (antibody, V domains shown)
VH: B3 VH with F24L, M34R, S63P, A74D, A80V, K83R, S101Q, N111D
VL: LIVLTQSPAIMSASPGEKVTMTCGATSRISYMFWYQQKPGSSPRVLIYDTSNLASGVPVRFSGSGSGTSYSLTISRVEAEDVATYYCQQWNSYPLTFGAGTKLELK
notes: mouse IgG, kappa light chain; also called clone #42; purified antibody 42
B6: antibody 43 (antibody, V domains shown)
VH: B3 VH with T3A, P42S, H52N, E58D, S63P, A74D, T75A, S101G, N111D
VL: B5 VL with L1Q, K18R, G24S, T26N, F33Y, V45L, V77M, V82A, Y86N, N91S
notes: mouse IgG, kappa light chain; also called clone #43; purified antibody 43
B7: antibody 22 (antibody, V domains shown)
VH: B3 VH with A80V
VL: B3 VL with C31Y, S84T
notes: mouse IgG, kappa light chain; also called clone #22; purified antibody 22

Experiments:
Assay in all cases: FACS, MEF-DKO cells, 3 µg/ml
hiR2-FL-A560S-T7 = target: T1, hiR2-FL-A560S-T7
hiR2-FL-T530P-T7 = target: T2, hiR2-FL-T530P-T7
hiR2-FL-P532A-T7 = target: T3, hiR2-FL-P532A-T7

Binder	loss of binding vs wild type (hiR2-FL-A560S-T7) [%]	loss of binding vs wild type (hiR2-FL-T530P-T7) [%]	loss of binding vs wild type (hiR2-FL-P532A-T7) [%]
B1	≥ 30	≥ 30	–
B2	≥ 30	≥ 30	–
B3	–	–	≥ 60
B4	–	–	≥ 60
B5	≥ 30	≥ 30	≥ 60
B6	–	–	≥ 60
B7	–	–	≥ 30
